Laboratory results: patent US20250281536A1 (published 2025)

Biological target: T1, Human CD4-Fc (human, UniProt P01730 26-390)
T1 construct: not shown: Fc
Assay: BLI; human CD4-Fc captured; binder-mouse Fc homodimer at 125 nM

B1: Binder 279 expressed as homodimer with mouse Fc (Fc fusion)
chain: QVQLVQSGAEVKKPGASVKVSCKASGGTFSSYAISWVRQAPGQGLEWMGWINPNSGGTNYAQKFQGRVTMTRDTSTSTVYMELSSLRSEDTAVYYCARDGYSGSYSDWGQGTLVTVSSGGGGSGGGGSGGGGSDIVMTQSPDSLAVSLGERATINCKSSQSVLSSSYNKNYLAWYQQKPGQPPKLLIYWASTRESGVPDRFSGSGSGTDFTLTISSLQAEDVAVYYCQQYYSTPWTFGQGTKVEIK
notes: not shown: mouse Fc
Kd: 5 nM | koff: 0.00021 s⁻¹ | kon: 41700 M⁻¹ s⁻¹
